Results published in paper PMC5693944, “Ml proteins from Mesorhizobium loti and MucR from Brucella abortus: an AT-rich core DNA-target site and oligomerization ability”.

T1: Ml2 (Mesorhizobium loti, UniProt A0A1A5JHX8 1-141)
T1 sequence: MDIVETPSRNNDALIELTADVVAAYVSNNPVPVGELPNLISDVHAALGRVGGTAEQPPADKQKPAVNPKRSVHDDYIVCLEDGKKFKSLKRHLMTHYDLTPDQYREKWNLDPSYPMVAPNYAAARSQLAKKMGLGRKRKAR


Tests used:
Ml2 = target: T1, Ml2; assay: EMSA; conditions: protein: recombinant; chain copies: 10
MucR = MucR (Brucella abortus 2308, UniProt Q2YMR3 1-142); assay: EMSA; conditions: protein: recombinant; chain copies: 10; blunt

| Binder | binding result (Ml2) | binding result (MucR) |
| --- | --- | --- |
| Exoy43bp (dsDNA) DNA 1: CCACTGAAATAGTCGCGTCATGAATTGACTAAATAATAAGCTA DNA 2: TAGCTTATTATTTAGTCAATTCATGACGCGACTATTTCAGTGG | binds | binds |
| Core3 (dsDNA) DNA 1: GGCGCCGAAATACCGGAGCG DNA 2: CGCTCCGGTATTTCGGCGCC | binds |  |
| Seq1.2 (dsDNA) DNA 1: CCACTGACCGCGTCGCGTCA DNA 2: TGACGCGACGCGGTCAGTGG | no binding | no binding |
| Core2mut (dsDNA) DNA 1: GGCGCCGAAAAAACGGAGCG DNA 2: CGCTCCGTTTTTTCGGCGCC | no binding |  |
| Seq3.2 (dsDNA) DNA 1: ATTGACTAAAGCCGAAGCTA DNA 2: TAGCTTCGGCTTTAGTCAAT | no binding | no binding |
| Core5 (dsDNA) DNA 1: GGCGCCGATATATCGGAGCG DNA 2: CGCTCCGATATATCGGCGCC | binds |  |
| Seq3.1 (dsDNA) DNA 1: ATTGACGCCCTAATAAGCTA DNA 2: TAGCTTATTAGGGCGTCAAT | no binding | no binding |
| Core4mut (dsDNA) DNA 1: GCGAAAAAAAAAATTTTGCC DNA 2: GGCAAAATTTTTTTTTTCGC | no binding |  |
| Core4 (dsDNA) DNA 1: GCGAAAAAAATAATTTTGCC DNA 2: GGCAAAATTATTTTTTTCGC | binds |  |
| Core2 (dsDNA) DNA 1: GGCGCCGAAATAACGGAGCG DNA 2: CGCTCCGTTATTTCGGCGCC | binds |  |
| Seq1.1 (dsDNA) DNA 1: CCACGTCCCTAGTCGCGTCA DNA 2: TGACGCGACTAGGGACGTGG | no binding | no binding |
| Core1 (dsDNA) DNA 1: GGCGCCGAAATAGCGGAGCG DNA 2: CGCTCCGCTATTTCGGCGCC | binds |  |
